The record followed here is PMC6368300.

In this experiment the target is Pyruvate Kinase M2 (human) (UniProt P14618). Briefly: SPR; Autolab SPR; PKM2 immobilised by NHS/EDC coupling; Histone H3 100 nM-1000 nM as analyte; 10 mM HEPES pH 7.4, 150 mM NaCl, 3 mM EDTA, 0.05% NP-40; 25°C; 1:1 Langmuir model, KD from the equilibrium equation; triplicate. On the technique in general: Surface plasmon resonance follows binding to a sensor surface in real time, without labels.
UniProt P14618, sequence (P14618 whole entry): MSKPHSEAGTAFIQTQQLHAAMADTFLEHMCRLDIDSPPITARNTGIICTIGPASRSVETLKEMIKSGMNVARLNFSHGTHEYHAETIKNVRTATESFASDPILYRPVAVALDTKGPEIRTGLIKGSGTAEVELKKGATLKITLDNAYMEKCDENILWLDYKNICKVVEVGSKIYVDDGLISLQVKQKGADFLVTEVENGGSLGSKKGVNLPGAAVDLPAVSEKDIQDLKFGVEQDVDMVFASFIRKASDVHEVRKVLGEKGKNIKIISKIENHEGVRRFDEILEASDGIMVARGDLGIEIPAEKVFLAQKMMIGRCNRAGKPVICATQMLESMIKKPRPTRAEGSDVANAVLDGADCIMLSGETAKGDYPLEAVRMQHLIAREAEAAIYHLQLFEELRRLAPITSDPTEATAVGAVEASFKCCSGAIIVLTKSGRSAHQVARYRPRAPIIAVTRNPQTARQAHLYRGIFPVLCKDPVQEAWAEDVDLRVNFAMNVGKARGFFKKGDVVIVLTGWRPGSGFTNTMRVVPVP

As usually defined, the Kd is the concentration at which binding is half-saturated. Lower therefore signals higher affinity. For “Histone H3 (from UniProt P84233 1-136) (natural protein; other documents disagree on this pair)”, the equilibrium dissociation constant (Kd) stood at 6.39 µM.
